Results: patent publication US20240247080A1, “GLP1/GIP/NPY2 RECEPTOR TRIPLE AGONISTS” (Boehringer Ingelheim International GmbH, priority 2022, published 2024)
Substitutions are numbered along the chain they refer to. Starred links: 1 amine or outer side, 2 acyl side, 3 side chain; linkers in the order of their positions; H or OH if unused. Non-standard residues stand in square brackets, D forms with d. Groups on a side chain read outwards from the residue. No end group written: not given here. *: point of attachment. C20 diacid = O=C(O)CCCCCCCCCCCCCCCCCCC(=O)*; γGlu = O=C(O)[C@H](CCC(=O)[*:2])N[*:1]; εLys = N[C@@H](CCCCN[*:1])C(=O)[*:2]; AEEA = NCCOCCOCC(=O)O; Aib = CC(C)(N)C(=O)O

Legend:
Experiment in all cases: cell-based or functional assay
human GLP-1 receptor = human GLP-1 receptor (human, UniProt P43220 24-463)
[1] = target: T1, human neuropeptide Y2 (NPY2) receptor (human, UniProt P49146 1-381)
T1 sequence (looked up): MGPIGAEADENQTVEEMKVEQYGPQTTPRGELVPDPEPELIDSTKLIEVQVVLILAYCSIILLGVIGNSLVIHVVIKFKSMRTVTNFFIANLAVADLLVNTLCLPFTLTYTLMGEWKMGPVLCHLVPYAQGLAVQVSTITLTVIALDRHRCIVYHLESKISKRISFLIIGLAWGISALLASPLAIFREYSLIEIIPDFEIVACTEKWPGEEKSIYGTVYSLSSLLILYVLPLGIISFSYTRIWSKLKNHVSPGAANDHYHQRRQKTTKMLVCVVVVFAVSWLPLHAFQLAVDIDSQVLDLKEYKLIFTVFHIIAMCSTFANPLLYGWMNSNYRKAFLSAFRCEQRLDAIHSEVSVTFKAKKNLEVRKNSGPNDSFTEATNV

human GIP receptor = target: T2, human GIP receptor (human, UniProt P48546 22-466)
T2 sequence (looked up): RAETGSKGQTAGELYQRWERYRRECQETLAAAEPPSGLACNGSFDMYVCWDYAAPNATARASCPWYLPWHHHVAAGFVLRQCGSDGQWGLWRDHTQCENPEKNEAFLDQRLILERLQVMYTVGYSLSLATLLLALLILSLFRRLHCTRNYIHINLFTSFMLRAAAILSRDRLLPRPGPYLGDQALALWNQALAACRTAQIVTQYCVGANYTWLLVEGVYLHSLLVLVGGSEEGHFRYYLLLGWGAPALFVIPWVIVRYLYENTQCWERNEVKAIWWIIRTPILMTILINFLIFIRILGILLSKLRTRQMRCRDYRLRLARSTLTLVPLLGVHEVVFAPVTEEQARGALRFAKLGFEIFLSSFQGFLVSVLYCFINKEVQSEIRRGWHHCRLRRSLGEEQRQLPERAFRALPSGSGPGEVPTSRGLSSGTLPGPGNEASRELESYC

B1: Compound 46 (peptide)
peptide: YXEGTFTSDYSIXLEKEAQXKFVEWLIKGGPSSGASLRHYYNWLTRQRY
modifications: Aib at 2, 13, 20; K28 side chain: C20DA-gGlu-gGlu-gGlu-gGlu-gGlu-gGlu-eLys; C-terminal NH2
Human GLP-1 receptor
  EC50, CreLuc assay, 0.5% hP: 0.21 nM
  EC50, CreLuc assay, 100% hP: 5.94 nM
[1]
  EC50, CreLuc assay, 0.5% hP: 10.2 nM
  EC50, CreLuc assay, 100% hP: 36 nM
Human GIP receptor
  EC50, CreLuc assay, 0.5% hP: 0.2 nM
  EC50, CreLuc assay, 100% hP: 1.21 nM

B2: Compound 44 (peptide)
peptide: B1 peptide with E17Q, K21A, A35Q, L37X
modifications: Aib at 2, 13, 20, 37; K28 side chain: C20DA-gGlu-gGlu-gGlu-gGlu-gGlu-gGlu-eLys; C-terminal NH2
Human GLP-1 receptor
  EC50, CreLuc assay, 0.5% hP: 0.07 nM
  EC50, CreLuc assay, 100% hP: 2.12 nM
[1]
  EC50, CreLuc assay, 0.5% hP: 9.35 nM
  EC50, CreLuc assay, 100% hP: 24.5 nM
Human GIP receptor
  EC50, CreLuc assay, 0.5% hP: 0.05 nM
  EC50, CreLuc assay, 100% hP: 1.14 nM

B3: Compound 49 (peptide)
peptide: B1 peptide with E17Q, K21A, A35E, L37X
modifications: Aib at 2, 13, 20, 37; K28 side chain: C20DA-gGlu-gGlu-gGlu-gGlu-gGlu-gGlu-eLys; C-terminal NH2
Human GLP-1 receptor
  EC50, CreLuc assay, 0.5% hP: 0.12 nM
  EC50, CreLuc assay, 100% hP: 2.08 nM
[1]
  EC50, CreLuc assay, 0.5% hP: 12.5 nM
  EC50, CreLuc assay, 100% hP: 36.8 nM
Human GIP receptor
  EC50, CreLuc assay, 0.5% hP: 0.07 nM
  EC50, CreLuc assay, 100% hP: 1.25 nM

B4: Compound 40 (peptide)
peptide: B1 peptide with E17Q, K21A, G34Y, A35V
modifications: Aib at 2, 13, 20; K28 side chain: C20DA-gGlu-gGlu-gGlu-gGlu-gGlu-gGlu-eLys; C-terminal NH2
Human GLP-1 receptor
  EC50, CreLuc assay, 0.5% hP: 0.46 nM
  EC50, CreLuc assay, 100% hP: 9.04 nM
[1]
  EC50, CreLuc assay, 0.5% hP: 11.9 nM
  EC50, CreLuc assay, 100% hP: 26.4 nM
Human GIP receptor
  EC50, CreLuc assay, 0.5% hP: 0.48 nM
  EC50, CreLuc assay, 100% hP: 4.36 nM

B5: Compound 42 (peptide)
peptide: B1 peptide with E17Q, K21A, S33E, G34Y, A35V, L37I
modifications: Aib at 2, 13, 20; K28 side chain: C20DA-gGlu-gGlu-gGlu-gGlu-gGlu-gGlu-eLys; C-terminal NH2
Human GLP-1 receptor
  EC50, CreLuc assay, 0.5% hP: 0.36 nM
  EC50, CreLuc assay, 100% hP: 7.15 nM
[1]
  EC50, CreLuc assay, 0.5% hP: 8.82 nM
  EC50, CreLuc assay, 100% hP: 19.1 nM
Human GIP receptor
  EC50, CreLuc assay, 0.5% hP: 0.15 nM
  EC50, CreLuc assay, 100% hP: 1.34 nM

B6: Compound 48 (peptide)
peptide: B1 peptide with E17Q, K21A, S33E, G34P, A35Q, L37I
modifications: Aib at 2, 13, 20; K28 side chain: C20DA-gGlu-gGlu-gGlu-gGlu-gGlu-gGlu-eLys; C-terminal NH2
Human GLP-1 receptor
  EC50, CreLuc assay, 0.5% hP: 0.07 nM
  EC50, CreLuc assay, 100% hP: 3.1 nM
[1]
  EC50, CreLuc assay, 0.5% hP: 9.77 nM
  EC50, CreLuc assay, 100% hP: 35.2 nM
Human GIP receptor
  EC50, CreLuc assay, 0.5% hP: 0.07 nM
  EC50, CreLuc assay, 100% hP: 0.68 nM

B7: Compound 41 (peptide)
peptide: B1 peptide with E17Q, K21A, G34P, A35Q
modifications: Aib at 2, 13, 20; K28 side chain: C20DA-gGlu-gGlu-gGlu-gGlu-gGlu-gGlu-eLys; C-terminal NH2
Human GLP-1 receptor
  EC50, CreLuc assay, 0.5% hP: 0.06 nM
  EC50, CreLuc assay, 100% hP: 1.47 nM
[1]
  EC50, CreLuc assay, 0.5% hP: 10.2 nM
  EC50, CreLuc assay, 100% hP: 34.6 nM
Human GIP receptor
  EC50, CreLuc assay, 0.5% hP: 0.07 nM
  EC50, CreLuc assay, 100% hP: 0.62 nM

B8: Compound 51 (peptide)
peptide: B1 peptide with E17Q, Q19E, K21A, E24Q
modifications: Aib at 2, 13, 20; K28 side chain: C18DA-gGlu-gGlu-gGlu-gGlu-gGlu-gGlu-eLys; C-terminal NH2
Human GLP-1 receptor
  EC50, CreLuc assay, 0.5% hP: 0.15 nM
  EC50, CreLuc assay, 100% hP: 4.66 nM
[1]
  EC50, CreLuc assay, 0.5% hP: 13.8 nM
  EC50, CreLuc assay, 100% hP: 42.2 nM
Human GIP receptor
  EC50, CreLuc assay, 0.5% hP: 0.23 nM
  EC50, CreLuc assay, 100% hP: 1.37 nM

## Y[Aib]EGTFTSDYSI[Aib]LEKQAQ[Aib]EFVQWLIK([εLys-γGlu-γGlu-γGlu-γGlu-γGlu-γGlu-γGlu-C20 diacid])GGPSSGASLRHYYNWLTRQRY-NH2 (also: TFA salt) [Compound 43]
Human GLP-1 receptor
  EC50, CreLuc assay, 0.5% hP: 0.41 nM
  EC50, CreLuc assay, 100% hP: 5.91 nM
[1]
  EC50, CreLuc assay, 0.5% hP: 13.1 nM
  EC50, CreLuc assay, 100% hP: 21.1 nM
Human GIP receptor
  EC50, CreLuc assay, 0.5% hP: 0.64 nM
  EC50, CreLuc assay, 100% hP: 1.97 nM

## Y[Aib]EGTFTSDYSI[Aib]LEEQAQ[Aib]AFVQWLIK([εLys-AEEA-γGlu-γGlu-γGlu-γGlu-γGlu-C20 diacid])GGPSSGASLRHYYNWLTRQRY-NH2 (also: TFA salt) [Compound 45]
Human GLP-1 receptor
  EC50, CreLuc assay, 0.5% hP: 0.11 nM
  EC50, CreLuc assay, 100% hP: 1.6 nM
[1]
  EC50, CreLuc assay, 0.5% hP: 17.2 nM
  EC50, CreLuc assay, 100% hP: 46.5 nM
Human GIP receptor
  EC50, CreLuc assay, 0.5% hP: 0.14 nM
  EC50, CreLuc assay, 100% hP: 1.15 nM
